Data reported in patent publication US7132248 (dated 2006).

T1: rat GALR2 (rat)
T1 chain: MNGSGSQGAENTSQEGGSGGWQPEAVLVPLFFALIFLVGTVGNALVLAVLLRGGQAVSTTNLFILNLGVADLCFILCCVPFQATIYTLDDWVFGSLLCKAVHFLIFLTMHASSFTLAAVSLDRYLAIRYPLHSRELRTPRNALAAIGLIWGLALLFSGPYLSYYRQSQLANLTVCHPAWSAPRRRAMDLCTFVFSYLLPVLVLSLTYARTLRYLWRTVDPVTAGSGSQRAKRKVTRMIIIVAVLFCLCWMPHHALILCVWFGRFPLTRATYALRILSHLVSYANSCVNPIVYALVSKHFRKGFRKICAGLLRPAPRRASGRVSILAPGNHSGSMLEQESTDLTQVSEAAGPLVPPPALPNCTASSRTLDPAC

T2: human GALR2 (human)
T2 chain: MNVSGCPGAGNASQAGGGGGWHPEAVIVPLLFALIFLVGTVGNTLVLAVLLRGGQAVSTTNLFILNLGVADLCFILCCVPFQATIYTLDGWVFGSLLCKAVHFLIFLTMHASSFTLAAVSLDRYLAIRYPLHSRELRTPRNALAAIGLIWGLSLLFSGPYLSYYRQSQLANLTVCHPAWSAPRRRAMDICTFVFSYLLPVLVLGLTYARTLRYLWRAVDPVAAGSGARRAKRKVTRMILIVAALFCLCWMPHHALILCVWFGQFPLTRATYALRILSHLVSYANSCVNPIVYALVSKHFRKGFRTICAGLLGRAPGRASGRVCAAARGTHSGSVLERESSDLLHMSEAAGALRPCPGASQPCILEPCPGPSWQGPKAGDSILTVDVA

T3: rat GALR1 (rat, UniProt Q62805)
T3 chain: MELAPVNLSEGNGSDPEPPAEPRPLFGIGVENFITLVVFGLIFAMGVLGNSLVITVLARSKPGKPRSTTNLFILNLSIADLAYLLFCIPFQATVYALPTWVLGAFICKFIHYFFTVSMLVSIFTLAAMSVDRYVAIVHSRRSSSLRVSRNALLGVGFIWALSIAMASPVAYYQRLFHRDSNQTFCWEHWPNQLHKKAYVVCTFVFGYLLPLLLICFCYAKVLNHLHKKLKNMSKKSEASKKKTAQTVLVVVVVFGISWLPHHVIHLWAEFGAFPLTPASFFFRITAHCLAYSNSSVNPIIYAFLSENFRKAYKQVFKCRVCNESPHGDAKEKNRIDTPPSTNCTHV


What was measured:
rat GALR2 [1] = molecular target: T1, rat GALR2; assay: competition, radioligand CHO
rat GALR2 [2] = molecular target: T1, rat GALR2; assay: competition, radioligand COS-7
human GALR2 = molecular target: T2, human GALR2; assay: competition, radioligand COS-7
rat GALR1 = molecular target: T3, rat GALR1; assay: competition, radioligand COS-7
rat GALR2 [3] = molecular target: T1, rat GALR2; assay: competition, radioligand COS-7

Binder	Ki (rat GALR2 [1])	Ki (human GALR2)	other results
MPRGCALLL [porcine galanin 1-9]	> 1000 nM	–	–
MPRGCALLLASLLLASALSATLGLGSPVK [porcine galanin (1-29)]	–	0.72 nM	Ki (rat GALR1): 0.457 nM
LASLLLASALSATLGLGSPVK [porcine galanin 9-29]	> 1000 nM	–	–
RGCALLLASLLLASALSATLGLGSPVK [porcine galanin (3-29)]	–	–	Ki (rat GALR2 [2]): > 100000 nM

Now from value to binder, other results behind:

Ki (rat GALR2 [1])	Ki (human GALR2)	Binder	other results
1.2 nM	–	human galanin (protein) KRGWTLNSAGYLLGPHAVGNHRSFSDKNGLTSKRELRPEDDMKPGSFDRSIPENNIMRTIIEFLSFLHLKEAGALDRLLDLPAAASSEDIERS	–
–	15 nM	MPRGCALLLASLLLAS [galanin (1-16)]	Ki (rat GALR2 [2]): 1.74 nM
> 1000 nM	–	ALSATLGLGSPVK [porcine galanin 17-29]	–
–	1 nM	MARGSVILLAWLLLVATLSATLGLGMPTK [rat galanin]	Ki (rat GALR2 [3]): 0.52 nM
